# Data published in FireProtDB (doi:10.1016/j.jmb.2006.01.055).
# Several values for one entry are separate records, joined by “and”; a condition that tells them apart may be missing. Equal values may be shown once.
# Conditions: Equus caballus, pH 5, 15 °C, Abs, CD, Fluorescence, Sodium acetate 0.1 M, reversible: Yes
# [1] = GdnHCl, transition: 3, structure 1AKK
# Chain of Cytochrome c H34N, P00004 (P00004 whole entry H34N): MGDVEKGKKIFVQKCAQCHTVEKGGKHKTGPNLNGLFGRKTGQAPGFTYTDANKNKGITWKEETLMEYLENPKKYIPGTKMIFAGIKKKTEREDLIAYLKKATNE
# Chain of Cytochrome c wild type, P00004 (P00004 whole entry): as the sequence (P00004 whole entry H34N) above, with N34H counted along it
Substance,denaturant m value (GdnHCl) [kcal/mol/M],unfolding free energy (GdnHCl) [kcal/mol],"denaturant m value (GdnHCl, transition: 3)","denaturant midpoint (higher = more stable) (GdnHCl, transition: 3)","denaturant m value (GdnHCl, structure 1AKK) [kcal/mol/M]","unfolding free energy (GdnHCl, structure 1AKK) [kcal/mol]",denaturant m value [1],denaturant midpoint (higher = more stable) [1],unfolding free energy [1],"denaturant m value (Urea, structure 1AKK) [kcal/mol/M]","unfolding free energy (Urea, structure 1AKK) [kcal/mol]","denaturant midpoint (higher = more stable) (Urea, transition: 3, structure 1AKK)"
"Cytochrome c wild type, P00004",4.39,9.8,1.34 kcal/mol/M and 3.05 kcal/mol/M,1.5 M and 2.55 M,–,–,–,–,–,–,–,–
"Cytochrome c H34N, P00004",–,–,–,–,4.8,10.8,1.7 kcal/mol/M and 3.08 kcal/mol/M,2.07 M and 2.34 M,3.5 kcal/mol and 7.3 kcal/mol,2.43,10.5,4 M and 4.81 M
